According to article PMC10786891, “Massively parallel profiling of RNA-targeting CRISPR-Cas13d”:

T1: EsCas13d, nuclease-dead (Eubacterium siraeum, UniProt B0MS50, R295A;H300A;R849A;H854A)
T1 sequence: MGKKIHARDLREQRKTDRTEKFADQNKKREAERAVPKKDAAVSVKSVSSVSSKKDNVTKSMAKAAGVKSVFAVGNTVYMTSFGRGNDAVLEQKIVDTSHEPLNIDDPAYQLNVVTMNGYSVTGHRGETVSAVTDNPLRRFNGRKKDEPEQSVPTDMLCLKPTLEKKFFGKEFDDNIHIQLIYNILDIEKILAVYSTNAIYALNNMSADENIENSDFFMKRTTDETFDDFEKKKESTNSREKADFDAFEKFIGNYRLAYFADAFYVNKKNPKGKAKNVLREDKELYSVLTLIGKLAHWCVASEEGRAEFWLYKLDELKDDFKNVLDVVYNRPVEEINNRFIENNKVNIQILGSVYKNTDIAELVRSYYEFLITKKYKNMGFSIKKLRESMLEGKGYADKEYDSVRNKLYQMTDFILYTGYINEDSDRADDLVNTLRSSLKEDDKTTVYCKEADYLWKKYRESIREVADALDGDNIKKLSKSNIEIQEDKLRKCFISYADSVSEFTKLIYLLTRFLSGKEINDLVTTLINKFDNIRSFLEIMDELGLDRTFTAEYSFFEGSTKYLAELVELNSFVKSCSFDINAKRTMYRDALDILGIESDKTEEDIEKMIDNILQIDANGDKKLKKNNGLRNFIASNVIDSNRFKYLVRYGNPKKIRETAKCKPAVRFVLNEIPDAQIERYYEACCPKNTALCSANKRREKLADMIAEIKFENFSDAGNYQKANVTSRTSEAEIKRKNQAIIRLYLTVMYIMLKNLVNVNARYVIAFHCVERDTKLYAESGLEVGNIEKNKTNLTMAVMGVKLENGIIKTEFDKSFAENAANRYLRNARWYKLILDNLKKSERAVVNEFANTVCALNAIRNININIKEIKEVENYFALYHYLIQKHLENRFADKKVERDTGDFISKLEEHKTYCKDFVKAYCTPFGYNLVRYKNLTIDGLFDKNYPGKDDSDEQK


Molecular target: T1, EsCas13d, nuclease-dead
Assay: crRNA (strand 1, pre-loaded); Mg2+; 40 mM Tris-HCl pH 7.5, 150 mM NaCl, 6 mM MgCl2, 1 mM DTT, 0.1% Tween-20, 0.2 mg/ml BSA; 25 C; 10 min per concentration, then washed
Conditions: tags: His6-TwinStrep-SUMO cleaved; N-terminal SNAP kept (SNAP-Surface 488); label: 3' end held by stalled T7 RNA polymerase

| Binder | Kd [nM] |
| --- | --- |
| target 1 del2,del15 (mixed) RNA 1: CACCCGUGCAAAAAUGCAGGGGUCUAAAACUGAGCGGAUAACCUCUCUAUGG RNA 2: GGGAAUGGAUCCACAUCUACGAAUUCGUACCAUAGAAGGUUAUCCGCUACCGAGAUCGGAAGAGCACACGU | 42 ± 7 |
| target 1 insU 3' of 22,insA 3' of 3 (mixed) RNA 1: CACCCGUGCAAAAAUGCAGGGGUCUAAAACUGAGCGGAUAACCUCUCUAUGG RNA 2: GGGAAUGGAUCCACAUCUACGAAUUCGUACUCAUAGAGAGGUUAUCCGCUACACCGAGAUCGGAAGAGCACACGU | 31.5 ± 2.8 |
| target 1 insA 3' of 13,insA 3' of 2 (mixed) RNA 1: CACCCGUGCAAAAAUGCAGGGGUCUAAAACUGAGCGGAUAACCUCUCUAUGG RNA 2: GGGAAUGGAUCCACAUCUACGAAUUCGUACCAUAGAGAGAGUUAUCCGCUCAACCGAGAUCGGAAGAGCACACGU | 3.1 ± 0.28 |
| target 1 insU 3' of 7,insU 3' of 1 (mixed) RNA 1: CACCCGUGCAAAAAUGCAGGGGUCUAAAACUGAGCGGAUAACCUCUCUAUGG RNA 2: GGGAAUGGAUCCACAUCUACGAAUUCGUACCAUAGAGAGGUUAUCUCGCUCAUCCGAGAUCGGAAGAGCACACGU | 18.4 ± 0.9 |
| target 1 insC 3' of 11,insU 3' of 4 (mixed) RNA 1: CACCCGUGCAAAAAUGCAGGGGUCUAAAACUGAGCGGAUAACCUCUCUAUGG RNA 2: GGGAAUGGAUCCACAUCUACGAAUUCGUACCAUAGAGAGGUCUAUCCGCUUCACCGAGAUCGGAAGAGCACACGU | 23.2 ± 1.8 |
| target 1 insA 3' of 19,insG 3' of 2 (mixed) RNA 1: CACCCGUGCAAAAAUGCAGGGGUCUAAAACUGAGCGGAUAACCUCUCUAUGG RNA 2: GGGAAUGGAUCCACAUCUACGAAUUCGUACCAUAAGAGAGGUUAUCCGCUCGACCGAGAUCGGAAGAGCACACGU | 19.5 ± 1.3 |
| target 1 U19A,C22A (mixed) RNA 1: CACCCGUGCAAAAAUGCAGGGGUCUAAAACUGAGCGGAUAACCUCUCUAUGG RNA 2: GGGAAUGGAUCCACAUCUACGAAUUCGUAACAAAGAGAGGUUAUCCGCUCACCGAGAUCGGAAGAGCACACGU | 56 ± 7 |
| target 1 A16G,G17C (mixed) RNA 1: CACCCGUGCAAAAAUGCAGGGGUCUAAAACUGAGCGGAUAACCUCUCUAUGG RNA 2: GGGAAUGGAUCCACAUCUACGAAUUCGUACCAUACGGAGGUUAUCCGCUCACCGAGAUCGGAAGAGCACACGU | 76 ± 10 |
| target 1 U10A,U11C (mixed) RNA 1: CACCCGUGCAAAAAUGCAGGGGUCUAAAACUGAGCGGAUAACCUCUCUAUGG RNA 2: GGGAAUGGAUCCACAUCUACGAAUUCGUACCAUAGAGAGGCAAUCCGCUCACCGAGAUCGGAAGAGCACACGU | 9.96 ± 0.33 |
| target 1 insC 3' of 10,insG 3' of 3 (mixed) RNA 1: CACCCGUGCAAAAAUGCAGGGGUCUAAAACUGAGCGGAUAACCUCUCUAUGG RNA 2: GGGAAUGGAUCCACAUCUACGAAUUCGUACCAUAGAGAGGUUCAUCCGCUGCACCGAGAUCGGAAGAGCACACGU | 9.5 ± 0.5 |
| target 1 insG 3' of 8,insC 3' of 5 (mixed) RNA 1: CACCCGUGCAAAAAUGCAGGGGUCUAAAACUGAGCGGAUAACCUCUCUAUGG RNA 2: GGGAAUGGAUCCACAUCUACGAAUUCGUACCAUAGAGAGGUUAUGCCGCCUCACCGAGAUCGGAAGAGCACACGU | 10.2 ± 0.4 |
| target 1 insC 3' of 19,insA 3' of 10 (mixed) RNA 1: CACCCGUGCAAAAAUGCAGGGGUCUAAAACUGAGCGGAUAACCUCUCUAUGG RNA 2: GGGAAUGGAUCCACAUCUACGAAUUCGUACCAUCAGAGAGGUUAAUCCGCUCACCGAGAUCGGAAGAGCACACGU | 57 ± 5 |
| target 1 insU 3' of 22,insU 3' of 22 (mixed) RNA 1: CACCCGUGCAAAAAUGCAGGGGUCUAAAACUGAGCGGAUAACCUCUCUAUGG RNA 2: GGGAAUGGAUCCACAUCUACGAAUUCGUACUUCAUAGAGAGGUUAUCCGCUCACCGAGAUCGGAAGAGCACACGU | 31 ± 8 |
| target 1 A1U,U8G (mixed) RNA 1: CACCCGUGCAAAAAUGCAGGGGUCUAAAACUGAGCGGAUAACCUCUCUAUGG RNA 2: GGGAAUGGAUCCACAUCUACGAAUUCGUACCAUAGAGAGGUUAGCCGCUCUCCGAGAUCGGAAGAGCACACGU | 24.6 ± 1 |
| target 1 C2U,G5C (mixed) RNA 1: CACCCGUGCAAAAAUGCAGGGGUCUAAAACUGAGCGGAUAACCUCUCUAUGG RNA 2: GGGAAUGGAUCCACAUCUACGAAUUCGUACCAUAGAGAGGUUAUCCCCUUACCGAGAUCGGAAGAGCACACGU | 12.4 ± 0.8 |
| target 1 G15A,A16U (mixed) RNA 1: CACCCGUGCAAAAAUGCAGGGGUCUAAAACUGAGCGGAUAACCUCUCUAUGG RNA 2: GGGAAUGGAUCCACAUCUACGAAUUCGUACCAUAGUAAGGUUAUCCGCUCACCGAGAUCGGAAGAGCACACGU | 24.3 ± 2.3 |
| target 1 G12U,G17A (mixed) RNA 1: CACCCGUGCAAAAAUGCAGGGGUCUAAAACUGAGCGGAUAACCUCUCUAUGG RNA 2: GGGAAUGGAUCCACAUCUACGAAUUCGUACCAUAAAGAGUUUAUCCGCUCACCGAGAUCGGAAGAGCACACGU | 59 ± 8 |
| target 1 insU 3' of 13,insA 3' of 12 (mixed) RNA 1: CACCCGUGCAAAAAUGCAGGGGUCUAAAACUGAGCGGAUAACCUCUCUAUGG RNA 2: GGGAAUGGAUCCACAUCUACGAAUUCGUACCAUAGAGAGUGAUUAUCCGCUCACCGAGAUCGGAAGAGCACACGU | 10.1 ± 0.7 |
| target 1 U8G (mixed) RNA 1: CACCCGUGCAAAAAUGCAGGGGUCUAAAACUGAGCGGAUAACCUCUCUAUGG RNA 2: GGGAAUGGAUCCACAUCUACGAAUUCGUACCAUAGAGAGGUUAGCCGCUCACCGAGAUCGGAAGAGCACACGU | 19.2 ± 0.9 |
| target 1 C4G,U10G (mixed) RNA 1: CACCCGUGCAAAAAUGCAGGGGUCUAAAACUGAGCGGAUAACCUCUCUAUGG RNA 2: GGGAAUGGAUCCACAUCUACGAAUUCGUACCAUAGAGAGGUGAUCCGGUCACCGAGAUCGGAAGAGCACACGU | 13.6 ± 0.5 |
| target 1 insG 3' of 22,insU 3' of 18 (mixed) RNA 1: CACCCGUGCAAAAAUGCAGGGGUCUAAAACUGAGCGGAUAACCUCUCUAUGG RNA 2: GGGAAUGGAUCCACAUCUACGAAUUCGUACGCAUAUGAGAGGUUAUCCGCUCACCGAGAUCGGAAGAGCACACGU | 74 ± 18 |
| target 1 insC 3' of 15,insU 3' of 5 (mixed) RNA 1: CACCCGUGCAAAAAUGCAGGGGUCUAAAACUGAGCGGAUAACCUCUCUAUGG RNA 2: GGGAAUGGAUCCACAUCUACGAAUUCGUACCAUAGAGCAGGUUAUCCGUCUCACCGAGAUCGGAAGAGCACACGU | 16.6 ± 1.8 |
| target 1 del14,del20 (mixed) RNA 1: CACCCGUGCAAAAAUGCAGGGGUCUAAAACUGAGCGGAUAACCUCUCUAUGG RNA 2: GGGAAUGGAUCCACAUCUACGAAUUCGUACCUAGAGGGUUAUCCGCUCACCGAGAUCGGAAGAGCACACGU | 72 ± 25 |
| target 1 insG 3' of 9,insA 3' of 2 (mixed) RNA 1: CACCCGUGCAAAAAUGCAGGGGUCUAAAACUGAGCGGAUAACCUCUCUAUGG RNA 2: GGGAAUGGAUCCACAUCUACGAAUUCGUACCAUAGAGAGGUUAGUCCGCUCAACCGAGAUCGGAAGAGCACACGU | 21.2 ± 2.5 |
| target 1 G17U,C22U (mixed) RNA 1: CACCCGUGCAAAAAUGCAGGGGUCUAAAACUGAGCGGAUAACCUCUCUAUGG RNA 2: GGGAAUGGAUCCACAUCUACGAAUUCGUAUCAUAUAGAGGUUAUCCGCUCACCGAGAUCGGAAGAGCACACGU | 32.4 ± 2.8 |
| target 1 U3C,U10A (mixed) RNA 1: CACCCGUGCAAAAAUGCAGGGGUCUAAAACUGAGCGGAUAACCUCUCUAUGG RNA 2: GGGAAUGGAUCCACAUCUACGAAUUCGUACCAUAGAGAGGUAAUCCGCCCACCGAGAUCGGAAGAGCACACGU | 90 ± 40 |
| target 1 U10C,G13A (mixed) RNA 1: CACCCGUGCAAAAAUGCAGGGGUCUAAAACUGAGCGGAUAACCUCUCUAUGG RNA 2: GGGAAUGGAUCCACAUCUACGAAUUCGUACCAUAGAGAAGUCAUCCGCUCACCGAGAUCGGAAGAGCACACGU | 13.6 ± 1 |
| target 1 U3A,A14G (mixed) RNA 1: CACCCGUGCAAAAAUGCAGGGGUCUAAAACUGAGCGGAUAACCUCUCUAUGG RNA 2: GGGAAUGGAUCCACAUCUACGAAUUCGUACCAUAGAGGGGUUAUCCGCACACCGAGAUCGGAAGAGCACACGU | 14.3 ± 1.2 |
